Positions count from the first letter of the chain named. In names and notes the source's numbering stands.
Target: equine FcRn (large alpha subunit p51) / equine beta-2-microglobulin complex, biotinylated (equine) (UniProt P30441)
Assay: SPR (Biacore), pH 6

Chain of UniProt P30441 (P30441 21-118, one chain of several): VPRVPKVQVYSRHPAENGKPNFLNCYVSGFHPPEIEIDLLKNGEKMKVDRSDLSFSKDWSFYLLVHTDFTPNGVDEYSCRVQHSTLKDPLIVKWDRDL

B1: equine IgG4 M428V (antibody, part only; not given: Variable domains, not shown: another chain or arm of the molecule)
constant: ASTTAPKVFPLASHSAATSGSTVALGCLVSSYFPEPVTVSWNSGALTSGVHTFPSVLQSSGLYSLSSMVTVPASSLKSQTYICNVAHPASSTKVDKKIVIKECNGGCPAECLQVGPSVFIFPPKPKDVLMISRTPTVTCVVVDVGHDFPDVQFNWYVDGVETHTATTEPKQEQFNSTYRVVSVLPIQHKDWLSGKEFKCKVNNKALPAPVERTISKPTGQPREPQVYVLAPHRDELSKNKVSVTCLVKDFYPTDIDIEWKSNGQPEPETKYSTTPAQLDSDGSYFLYSKLTVETNRWQQGTTFTCAVVHEALHNHYTEKSVSKSPGK
  Kd: 0.0752 µM

B2: equine IgG4 N434G (antibody, part only; not given: variable domains, not shown: another chain or arm of the molecule)
constant: B1 constant with V308M, N314G
  Kd: 0.0212 µM

B3: equine IgG4 N434T (antibody, part only; not given: variable domains, not shown: another chain or arm of the molecule)
constant: B1 constant with V308M, N314T
  Kd: 0.0575 µM

B4: equine IgG4 D312L (antibody, part only; not given: variable domains, not shown: another chain or arm of the molecule)
constant: B1 constant with D190L, V308M
  Kd: 0.0116 µM

B5: equine IgG4 N434R (antibody, part only; not given: variable domains, not shown: another chain or arm of the molecule)
constant: B1 constant with V308M, N314R
  Kd: 0.0227 µM

B6: equine IgG4 D312F (antibody, part only; not given: variable domains, not shown: another chain or arm of the molecule)
constant: B1 constant with D190F, V308M
  Kd: 0.023 µM

B7: equine IgG4 N434A (antibody, part only; not given: Variable domains, not shown: another chain or arm of the molecule)
constant: B1 constant with V308M, N314A
  Kd: 0.0174 µM

B8: equine IgG4 N434S (antibody, part only; not given: variable domains, not shown: another chain or arm of the molecule)
constant: B1 constant with V308M, N314S
  Kd: 0.0238 µM

B9: equine IgG4 N434V (antibody, part only; not given: Variable domains, not shown: another chain or arm of the molecule)
constant: B1 constant with V308M, N314V
  Kd: 0.0326 µM

B10: equine IgG4 N434M (antibody, part only; not given: variable domains, not shown: another chain or arm of the molecule)
constant: B1 constant with V308M, N314M
  Kd: 0.0434 µM

B11: equine IgG4 N434L (antibody, part only; not given: variable domains, not shown: another chain or arm of the molecule)
constant: B1 constant with V308M, N314L
  Kd: 0.0485 µM

B12: equine IgG4 D312I (antibody, part only; not given: Variable domains, not shown: another chain or arm of the molecule)
constant: B1 constant with D190I, V308M
  Kd: 0.0294 µM

B13: equine IgG4 N434H (antibody, part only; not given: Variable domains, not shown: another chain or arm of the molecule)
constant: B1 constant with V308M, N314H
  Kd: 0.0052 µM

B14: equine IgG4 N434F (antibody, part only; not given: variable domains, not shown: another chain or arm of the molecule)
constant: B1 constant with V308M, N314F
  Kd: 0.0044 µM

B15: equine IgG4 D312P (antibody, part only; not given: Variable domains, not shown: another chain or arm of the molecule)
constant: B1 constant with D190P, V308M
  Kd: 0.0151 µM

B16: equine IgG4 M428W (antibody, part only; not given: variable domains, not shown: another chain or arm of the molecule)
constant: B1 constant with V308W
  Kd: 0.031 µM

B17: equine IgG4 N434I (antibody, part only; not given: variable domains, not shown: another chain or arm of the molecule)
constant: B1 constant with V308M, N314I
  Kd: 0.0406 µM

B18: equine IgG4 N434E (antibody, part only; not given: variable domains, not shown: another chain or arm of the molecule)
constant: B1 constant with V308M, N314E
  Kd: 0.0713 µM

B19: equine IgG4 N434Y (antibody, part only; not given: variable domains, not shown: another chain or arm of the molecule)
constant: B1 constant with V308M, N314Y
  Kd: 0.0046 µM

B20: equine IgG4 N434P (antibody, part only; not given: variable domains, not shown: another chain or arm of the molecule)
constant: B1 constant with V308M, N314P
  Kd: 0.0394 µM

B21: equine IgG4 D312E (antibody, part only; not given: variable domains, not shown: another chain or arm of the molecule)
constant: B1 constant with D190E, V308M
  Kd: 0.0502 µM

B22: equine IgG4 D312H (antibody, part only; not given: Variable domains, not shown: another chain or arm of the molecule)
constant: B1 constant with D190H, V308M
  Kd: 0.0202 µM

B23: equine IgG4 N434K (antibody, part only; not given: variable domains, not shown: another chain or arm of the molecule)
constant: B1 constant with V308M, N314K
  Kd: 0.0428 µM

B24: equine IgG4 N434Q (antibody, part only; not given: variable domains, not shown: another chain or arm of the molecule)
constant: B1 constant with V308M, N314Q
  Kd: 0.0177 µM

B25: equine IgG4 D312C (antibody, part only; not given: variable domains, not shown: another chain or arm of the molecule)
constant: B1 constant with D190C, V308M
  Kd: 0.0271 µM

B26: equine IgG4 M428Y (antibody, part only; not given: variable domains, not shown: another chain or arm of the molecule)
constant: B1 constant with V308Y
  Kd: 0.0308 µM

B27: equine IgG4 N434C (antibody, part only; not given: Variable domains, not shown: another chain or arm of the molecule)
constant: B1 constant with V308M, N314C
  Kd: 0.113 µM

B28: equine IgG4 N434W (antibody, part only; not given: variable domains, not shown: another chain or arm of the molecule)
constant: B1 constant with V308M, N314W
  Kd: 0.0016 µM

B29: equine IgG4 N434D (antibody, part only; not given: Variable domains, not shown: another chain or arm of the molecule)
constant: B1 constant with V308M, N314D
  Kd: 0.0385 µM

B30: equine IgG4 D312M (antibody, part only; not given: variable domains, not shown: another chain or arm of the molecule)
constant: B1 constant with D190M, V308M
  Kd: 0.025 µM

B31: equine IgG4 D312G (antibody, part only; not given: variable domains, not shown: another chain or arm of the molecule)
constant: B1 constant with D190G, V308M
  Kd: 0.0112 µM

B32: equine IgG4 D312K (antibody, part only; not given: variable domains, not shown: another chain or arm of the molecule)
constant: B1 constant with D190K, V308M
  Kd: 0.0136 µM

B33: equine IgG4 D312A (antibody, part only; not given: variable domains, not shown: another chain or arm of the molecule)
constant: B1 constant with D190A, V308M
  Kd: 0.0131 µM

B34: equine IgG4 D312N (antibody, part only; not given: variable domains, not shown: another chain or arm of the molecule)
constant: B1 constant with D190N, V308M
  Kd: 0.0161 µM

B35: equine IgG1 T286P (antibody, part only; not given: variable domains, not shown: another chain or arm of the molecule)
constant: ASTTAPKVFALAPGCGTTSDSTVALGCLVSGYFPEPVKVSWNSGSLTSGVHTFPSVLQSSGFYSLSSMVTVPASTWTSETYICNVVHAASNFKVDKRIEPIPDNHQKVCDMSKCPKCPAPELLGGPSVFIFPPNPKDTLMITRTPEVTCVVVDVSQENPDVKFNWYMDGVEVRPATTRPKEEQFNSTYRVVSVLRIQHQDWLSGKEFKCKVNNQALPQPIERTITKTKGRSQEPQVYVLAPHPDELSKSKVSVTCLVKDFYPPEINIEWQSNGQPELETKYSTTQAQQDSDGSYFLYSKLSVDRNRWQQGTTFTCGVMHEALHNHYTQKNVSKNPGK
  Kd: 0.0146 µM

B36: equine IgG1 T286R (antibody, part only; not given: variable domains, not shown: another chain or arm of the molecule)
constant: B35 constant with P174R
  Kd: 0.0205 µM

B37: equine IgG1 T286Q (antibody, part only; not given: variable domains, not shown: another chain or arm of the molecule)
constant: B35 constant with P174Q
  Kd: 0.017 µM

B38: equine IgG1 M252A (antibody, part only; not given: variable domains, not shown: another chain or arm of the molecule)
constant: B35 constant with M140A, P174T
  Kd: 0.0503 µM

B39: equine IgG1 T286S (antibody, part only; not given: Variable domains, not shown: another chain or arm of the molecule)
constant: B35 constant with P174S
  Kd: 0.0131 µM
